Experimental data published in the supplement of paper PMC7125110.
± gives the standard error. For part of these data: Fewer inactive variants are shown than the library holds.

B1: glmS ribozyme (parent)
chain: AUAAAAGCGCCAGAACUACAGAAAUGUAGUUGACGAGGAGGAGGUUUAUCGAAUUUUCGGCGGAUGCCUCCAAA

What was measured:
Conditions in all cases: with glucosamine-6-phosphate
glucosamine-6-phosphate [1] = variants of: B1; assay: kcat; higher = faster cleavage; RNA array
Procedure, shortened: (§1)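 Weighted Michaelis–Menten fits across concentrations supplied kcat and KM, based on kobs from one- or two-exponential decay fits to normalised per-tile medians. The data came from barcoded ribozyme variants transcribed in situ by E. coli RNA polymerase on sequenced MiSeq chips and tracked at 37 °C by a hybridised Cy3 probe. Glucosamine-6-phosphate (40 μM to 10 mM) in HEPES/KCl/Mg(OAc)2 buffer was flowed in.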

glucosamine-6-phosphate [2] = variants of: B1; assay: KM; higher = weaker cofactor use; RNA array
Procedure, shortened: as §1

glucosamine-6-phosphate [3] = variants of: B1; assay: self-cleavage kobs at 40 uM GlcN6P; higher = faster cleavage; RNA array
Procedure, shortened: as §1

glucosamine-6-phosphate [4] = variants of: B1; assay: self-cleavage kobs at 160 uM GlcN6P; higher = faster cleavage; RNA array
Procedure, shortened: as §1

glucosamine-6-phosphate [5] = variants of: B1; assay: self-cleavage kobs at 640 uM GlcN6P; higher = faster cleavage; RNA array
Procedure, shortened: as §1

glucosamine-6-phosphate [6] = variants of: B1; assay: self-cleavage kobs at 2500 uM GlcN6P; higher = faster cleavage; RNA array
Procedure, shortened: as §1

glucosamine-6-phosphate [7] = variants of: B1; assay: self-cleavage kobs at 10000 uM GlcN6P; higher = faster cleavage; RNA array
Procedure, shortened: as §1

Variant	kcat (glucosamine-6-phosphate [1]) [s⁻¹]	KM (glucosamine-6-phosphate [2]) [µM]	self-cleavage kobs at 40 uM GlcN6P (glucosamine-6-phosphate [3]) [s⁻¹]	self-cleavage kobs at 160 uM GlcN6P (glucosamine-6-phosphate [4]) [s⁻¹]	self-cleavage kobs at 640 uM GlcN6P (glucosamine-6-phosphate [5]) [s⁻¹]	self-cleavage kobs at 2500 uM GlcN6P (glucosamine-6-phosphate [6]) [s⁻¹]	self-cleavage kobs at 10000 uM GlcN6P (glucosamine-6-phosphate [7]) [s⁻¹]
G40U A42G	0.00742 ± 0.00078	1330 ± 220	0.000214 ± 4e-05	0.00072 ± 0.00018	0.00267 ± 0.00058	0.00567 ± 0.001	0.00603 ± 0.001
A42G U65G	0.00591 ± 0.00097	4220 ± 930	5.66e-05 ± 1.2e-05	0.000279 ± 7.4e-05	0.000708 ± 0.00015	0.00211 ± 0.00033	0.00436 ± 0.00084
G40C U49G	6.75e-05 ± 1.8e-05	–	< 1e-05	–	–	5.43e-05 ± 1.5e-05	5.5e-05 ± 1.3e-05
G41A A48C	1.6e-05 ± 1.9e-06	2350 ± 1000	< 1e-05	–	< 1e-05	–	–
G44U U54G	0.000306 ± 2.6e-05	986 ± 200	–	–	0.000127 ± 2.2e-05	0.000226 ± 4.8e-05	0.00027 ± 5.1e-05
G43A C68G	0.000174 ± 1.4e-05	993 ± 160	–	–	6.69e-05 ± 1.2e-05	0.000126 ± 2e-05	–
G40U A48U	7.9e-05 ± 9.5e-06	3220 ± 1300	< 1e-05	–	–	3.77e-05 ± 1.6e-05	5.95e-05 ± 8.8e-06
G40U A48C	5.25e-05 ± 2.1e-05	–	–	< 1e-05	–	–	3.45e-05 ± 9.8e-06
G40C U56G	0.00124 ± 0.00014	1460 ± 280	3.52e-05 ± 6.5e-06	0.000146 ± 2.1e-05	0.000333 ± 3.5e-05	0.000869 ± 0.00011	0.00108 ± 9.7e-05
A42U C67G	0.000997 ± 0.00019	853 ± 310	6.76e-05 ± 8.5e-06	0.000114 ± 2.5e-05	0.000369 ± 4.9e-05	0.00082 ± 0.00012	0.000939 ± 8.5e-05
G41C U65A	7.02e-05 ± 4.5e-06	1620 ± 350	< 1e-05	–	–	4.49e-05 ± 1e-05	5.94e-05 ± 1.1e-05
A42G U57C	0.000292 ± 1.6e-05	2270 ± 300	–	–	6.98e-05 ± 2e-05	0.000145 ± 2.7e-05	0.000242 ± 3.4e-05
A42U U56G	0.000177 ± 1.9e-05	3910 ± 850	–	–	2.06e-05 ± 8.1e-06	7.54e-05 ± 1.2e-05	0.000125 ± 1.7e-05
G43A C71U	< 1e-05	–	< 1e-05	–	–	–	–
G40U G66A	0.00396 ± 0.00044	2220 ± 390	8.13e-05 ± 1.2e-05	0.000207 ± 5.2e-05	0.000901 ± 0.00016	0.00208 ± 0.0004	0.00326 ± 0.00035
G40U G66U	6.98e-05 ± 5.6e-06	2030 ± 510	–	–	2.07e-05 ± 8.1e-06	3.54e-05 ± 7.3e-06	5.9e-05 ± 7.2e-06

Variant	kcat (glucosamine-6-phosphate [1]) [s⁻¹]	KM (glucosamine-6-phosphate [2]) [µM]	self-cleavage kobs at 40 uM GlcN6P (glucosamine-6-phosphate [3]) [s⁻¹]	self-cleavage kobs at 160 uM GlcN6P (glucosamine-6-phosphate [4]) [s⁻¹]	self-cleavage kobs at 640 uM GlcN6P (glucosamine-6-phosphate [5]) [s⁻¹]	self-cleavage kobs at 2500 uM GlcN6P (glucosamine-6-phosphate [6]) [s⁻¹]	self-cleavage kobs at 10000 uM GlcN6P (glucosamine-6-phosphate [7]) [s⁻¹]
G41C C58U	< 1e-05	–	< 1e-05	< 1e-05	–	–	< 1e-05
G43A A53C	6.63e-05 ± 3.6e-06	–	–	< 1e-05	< 1e-05	–	–
G41A A42U	0.000123 ± 4e-06	1440 ± 160	–	–	3.91e-05 ± 1.2e-05	7.77e-05 ± 1.3e-05	0.000108 ± 1.2e-05
G41U A52U	0.000103 ± 1e-05	1340 ± 510	–	–	–	7.47e-05 ± 1.3e-05	8.78e-05 ± 1.2e-05
U45A A52C	6.93e-05 ± 3e-05	–	–	< 1e-05	–	0.000121 ± 3.4e-05	5.55e-05 ± 1.5e-05
G41U A42U	0.00136 ± 0.00056	–	9.43e-05 ± 1.1e-05	0.000106 ± 1.9e-05	0.000464 ± 5.5e-05	0.00119 ± 0.00014	0.00108 ± 0.00015
A42G A52G	0.00211 ± 0.00034	2550 ± 600	–	0.000117 ± 1.7e-05	0.000471 ± 4.8e-05	0.000991 ± 8.9e-05	0.00187 ± 0.00037
A42G A52C	1.58e-05 ± 1.8e-06	–	–	–	–	–	–
G41A U65A	0.000213 ± 2.1e-05	1040 ± 220	–	–	7.98e-05 ± 1.2e-05	0.000171 ± 3e-05	0.000182 ± 3e-05
U45A A53C	0.0341 ± 0.0078	3160 ± 860	0.000466 ± 8.3e-05	0.00139 ± 0.00027	0.00608 ± 0.00081	0.017 ± 0.0047	0.0239 ± 0.0068
G43U U56A	1.76e-05 ± 3.4e-06	–	< 1e-05	–	–	–	–
G44U A53U	0.000149 ± 2.2e-05	–	–	–	–	0.00015 ± 6e-05	0.000129 ± 1e-05
G44U A53C	0.000114 ± 1.6e-05	1360 ± 610	–	–	–	8.9e-05 ± 1.7e-05	9.5e-05 ± 1.6e-05
G41C U46C	3.31e-05 ± 3.8e-06	2440 ± 1200	< 1e-05	< 1e-05	–	–	2.65e-05 ± 9.7e-06
A42C U56C	< 1e-05	–	< 1e-05	–	–	–	–
G44C A53U	7.99e-05 ± 9.3e-07	1170 ± 57	–	–	–	5.52e-05 ± 1.4e-05	7.13e-05 ± 1.1e-05
